Legend:
[1] = target: BG505.T332N Env on Env-pseudotyped virus (HIV-1 BG505 (clade A))
[2] = target: BG505.T332N Env on Env-pseudotyped virus (HIV-1 BG505 (clade A)); assay: cell-based or functional assay

PGT126 (antibody)
IC50, neutralization of BG505.T332N pseudovirus, TZM-bl cells [1]: 0.01 µg/mL

3BC176 (antibody)
IC50, neutralization of BG505.T332N pseudovirus, TZM-bl cells [1]: 0.175 µg/mL

3BC315 (antibody)
IC50, neutralization of BG505.T332N pseudovirus, TZM-bl cells [1]: 1.26 µg/mL

F91 (antibody)
IC50, neutralization of BG505.T332N pseudovirus, TZM-bl cells [1]: > 30 µg/mL
IC50 of neutralization of BG505.T332N Env-pseudovirus (TZM-bl) [2]: > 30 µg/mL

b12 (antibody)
IC50, neutralization of BG505.T332N pseudovirus, TZM-bl cells [1]: > 30 µg/mL
IC50 of neutralization of BG505.T332N Env-pseudovirus (TZM-bl) [2]: 30 µg/mL

PGT127 (antibody)
IC50, neutralization of BG505.T332N pseudovirus, TZM-bl cells [1]: 0.037 µg/mL

7B2 (antibody)
IC50, neutralization of BG505.T332N pseudovirus, TZM-bl cells [1]: > 30 µg/mL
IC50 of neutralization of BG505.T332N Env-pseudovirus (TZM-bl) [2]: > 30 µg/mL

CH31 (antibody)
IC50, neutralization of BG505.T332N pseudovirus, TZM-bl cells [1]: 0.014 µg/mL

HJ16 (antibody)
IC50, neutralization of BG505.T332N pseudovirus, TZM-bl cells [1]: 3.2 µg/mL

PGT121 (antibody)
IC50, neutralization of BG505.T332N pseudovirus, TZM-bl cells [1]: 0.015 µg/mL

PGT125 (antibody)
IC50, neutralization of BG505.T332N pseudovirus, TZM-bl cells [1]: 0.007 µg/mL

CH01 (antibody)
IC50, neutralization of BG505.T332N pseudovirus, TZM-bl cells [1]: 0.301 µg/mL

F240 (antibody)
IC50, neutralization of BG505.T332N pseudovirus, TZM-bl cells [1]: > 30 µg/mL
IC50 of neutralization of BG505.T332N Env-pseudovirus (TZM-bl) [2]: > 30 µg/mL

PGT128 (antibody)
IC50, neutralization of BG505.T332N pseudovirus, TZM-bl cells [1]: 0.011 µg/mL

PGT130 (antibody)
IC50, neutralization of BG505.T332N pseudovirus, TZM-bl cells [1]: 0.027 µg/mL

PGV04 (antibody)
IC50, neutralization of BG505.T332N pseudovirus, TZM-bl cells [1]: 0.066 µg/mL

PGT135 (antibody)
IC50, neutralization of BG505.T332N pseudovirus, TZM-bl cells [1]: 2.23 µg/mL

A32 (antibody)
IC50, neutralization of BG505.T332N pseudovirus, TZM-bl cells [1]: > 30 µg/mL
IC50 of neutralization of BG505.T332N Env-pseudovirus (TZM-bl) [2]: > 30 µg/mL

PG16 (antibody)
IC50, neutralization of BG505.T332N pseudovirus, TZM-bl cells [1]: 0.008 µg/mL

2G12 (antibody)
IC50, neutralization of BG505.T332N pseudovirus, TZM-bl cells [1]: 0.79 µg/mL

8ANC195 (antibody)
IC50, neutralization of BG505.T332N pseudovirus, TZM-bl cells [1]: 0.139 µg/mL

CH103 (antibody)
IC50, neutralization of BG505.T332N pseudovirus, TZM-bl cells [1]: 2.57 µg/mL

PGT123 (antibody)
IC50, neutralization of BG505.T332N pseudovirus, TZM-bl cells [1]: 0.028 µg/mL

PGT122 (antibody)
IC50, neutralization of BG505.T332N pseudovirus, TZM-bl cells [1]: 0.112 µg/mL

3BNC117 (antibody)
IC50, neutralization of BG505.T332N pseudovirus, TZM-bl cells [1]: 0.041 µg/mL

PGT136 (antibody)
IC50, neutralization of BG505.T332N pseudovirus, TZM-bl cells [1]: 25.7 µg/mL
IC50 of neutralization of BG505.T332N Env-pseudovirus (TZM-bl) [2]: 26.6 µg/mL

3BNC60 (antibody)
IC50, neutralization of BG505.T332N pseudovirus, TZM-bl cells [1]: 0.034 µg/mL

VRC01 (antibody)
IC50, neutralization of BG505.T332N pseudovirus, TZM-bl cells [1]: 0.07 µg/mL

45-46 (antibody)
IC50, neutralization of BG505.T332N pseudovirus, TZM-bl cells [1]: 0.033 µg/mL

CH106 (antibody)
IC50, neutralization of BG505.T332N pseudovirus, TZM-bl cells [1]: 2.7 µg/mL

1NC9 (antibody)
IC50, neutralization of BG505.T332N pseudovirus, TZM-bl cells [1]: 0.251 µg/mL

PGT145 (antibody)
IC50, neutralization of BG505.T332N pseudovirus, TZM-bl cells [1]: 0.083 µg/mL

12A12 (antibody)
IC50, neutralization of BG505.T332N pseudovirus, TZM-bl cells [1]: 0.05 µg/mL

VRC06 (antibody)
IC50, neutralization of BG505.T332N pseudovirus, TZM-bl cells [1]: 3.32 µg/mL

VRC06b (antibody)
IC50, neutralization of BG505.T332N pseudovirus, TZM-bl cells [1]: 1.11 µg/mL

b6 (antibody)
IC50, neutralization of BG505.T332N pseudovirus, TZM-bl cells [1]: > 30 µg/mL
IC50 of neutralization of BG505.T332N Env-pseudovirus (TZM-bl) [2]: > 30 µg/mL

X5 (antibody)
IC50, neutralization of BG505.T332N pseudovirus, TZM-bl cells [1]: > 30 µg/mL
IC50 of neutralization of BG505.T332N Env-pseudovirus (TZM-bl) [2]: > 30 µg/mL

F105 (antibody)
IC50, neutralization of BG505.T332N pseudovirus, TZM-bl cells [1]: > 30 µg/mL
IC50 of neutralization of BG505.T332N Env-pseudovirus (TZM-bl) [2]: > 30 µg/mL

VRC03 (antibody)
IC50, neutralization of BG505.T332N pseudovirus, TZM-bl cells [1]: 0.554 µg/mL

From patent US20140212458A1
